For orientation: EC50 means the midpoint of the concentration-response curve. Low readings indicate greater potency, high ones weaker potency. Usually EC50 (read off the curve) stands for the concentration that produces a half-maximal response. A low value points to an effect from little substance. Usually Kd stands for the equilibrium constant for the complex coming apart. The low end stands for higher affinity, the high end for lower affinity. By koff is commonly meant the first-order rate constant of dissociation. As a reminder, the kon is the second-order rate constant of association. Read a high kon as faster complex formation.

The values that follow come from patent publication US20240034796A1 (GENUV, published 2024).

Test [1] concerns the target T1, human PD-1 expressed on CHO-S cells (human, UniProt Q15116 25-288).
T1 construct: CHO-S cells transfected with pCMV3-C-FLAG vector (Sino) holding human PD-1 cDNA; also called cell surface human PD-1; hPD-1
Kind of test: cell-based ELISA on CHO-S cells expressing human PD-1. The procedure:
(§1) To summarize the ELISA analysis, 10,000 CHO-S cells expressing either human PD-1 or mouse PD-1 were coated in a collagen-coated 96-well plate (Thermo scientific) overnight in an incubator at 37° C. The coated cells were fixed with 8% paraformaldehyde at room temperature for 15 minutes.
(§2) After washing, a secondary antibody was added and incubated overnight at 4° C. […] After washing, TMB substrate (abcam) was added, and the color reaction was stopped with STOP solution (abcam). Absorbance at 450/650 nm was measured using a microplate reader (ThermoFisher).
Background: In an ELISA, binding on a coated surface is turned into a signal by an enzyme label.

Test [2] concerns the target T1, human PD-1 expressed on CHO-S cells. Kind of test: cell-based ELISA on fixed CHO-S cells expressing human PD-1.
Test [3] concerns the target T2, human PD-1 protein (human, UniProt Q15116 25-167, limits assumed).
T2 construct: also called human PD-1 antigen
Kind of test: SPR, Biacore 8K, antibody captured on Protein A chip, human PD-1 as analyte.

The target of test [4] is T2, human PD-1 protein. Kind of test: SPR, Biacore 8K, antibody captured on Protein A chip, human PD-1 as analyte, pH 7.4. In general terms: Surface plasmon resonance follows binding to a sensor surface in real time, without labels.
Test [5] deals with T2, human PD-1 protein. Kind of test: SPR, Biacore 8K, antibody captured by anti-human IgG on CM5, human PD-1 as analyte. The procedure: Anti-human IgG antibody was immobilized on a CM5 chip (Cytiva) via amine coupling. […] Human PD-1 and running buffer at a concentration of 0-100 nM (0, 6.25, 12.5, 25, 50, 100 nM) were flowed onto the sensor chip at a flow rate of 30 μl/min for an association phase of 120 s, which was followed by a dissociation phase of 900 s. The chip was regenerated with glycine at pH 1.5 after each experiment. Association and dissociation curves were drawn using Cytiva evaluation software, and kinetics and affinity values were determined.

For test [6], the target named is T3, mouse PD-1 expressed on CHO-S cells (mouse, UniProt Q02242 25-288).
T3 construct: whole, on cells; also called cell surface mouse PD-1; mPD-1
T3 sequence (looked up): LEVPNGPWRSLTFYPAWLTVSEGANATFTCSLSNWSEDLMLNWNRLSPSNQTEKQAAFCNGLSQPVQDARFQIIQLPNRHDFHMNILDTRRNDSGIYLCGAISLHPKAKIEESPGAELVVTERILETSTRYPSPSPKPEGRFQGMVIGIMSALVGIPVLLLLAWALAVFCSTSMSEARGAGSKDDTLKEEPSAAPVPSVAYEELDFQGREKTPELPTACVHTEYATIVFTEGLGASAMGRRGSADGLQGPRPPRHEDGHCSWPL
Kind of test: cell-based ELISA on CHO-S cells expressing mouse PD-1. How it is done:
as §1, §2

Test [7] concerns the target human BTLA protein (human, UniProt Q7Z6A9 31-157, limits assumed). As to the kind of experiment: protein-based ELISA, coated human BTLA, hybridoma supernatant. How it is done: (§3) Human PD-1, CD28, CTLA-4, ICOS, and BTLA proteins were coated in 96-well plates (Nunc) overnight at 4° C. […] After washing, a secondary antibody was added and incubated at 37° C. for 2 hours. […] After washing, TMB substrate (abcam) was added, and the color reaction was stopped with STOP solution (abcam). Absorbance at 450/650 nm was measured using a microplate reader (ThermoFisher).

Test [8] deals with human CD28 protein (human, UniProt P10747 19-152). As to the kind of experiment: protein-based ELISA, coated human CD28, hybridoma supernatant. The procedure:
as §3

The target of test [9] is T4, human ICOS protein (human, UniProt Q9Y6W8 21-140).
T4 sequence (looked up): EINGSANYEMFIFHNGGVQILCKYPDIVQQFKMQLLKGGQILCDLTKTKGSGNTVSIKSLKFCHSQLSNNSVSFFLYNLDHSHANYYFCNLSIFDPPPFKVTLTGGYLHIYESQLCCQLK
Kind of test: protein-based ELISA, coated human ICOS, hybridoma supernatant. The procedure:
as §3

Test [10] concerns the target human CTLA-4 protein (human, UniProt P16410 36-161). Kind of test: protein-based ELISA, coated human CTLA-4, hybridoma supernatant. How it is done:
as §3

Test [11] deals with T1, human PD-1 expressed on CHO-S cells. Kind of test: cell-based ELISA on CHO-S cells expressing human PD-1; EC50 against Keytruda and Opdivo. How it is done: as §1, §2
For test [12] the target is unchanged. As to the kind of experiment: cell-based ELISA on fixed CHO-S cells expressing human PD-1, hybridoma supernatant. The procedure:
(§4) To summarize the ELISA assay, 10,000 CHO-S cells expressing human or mouse PD-1 were coated in collagen-coated 96-well plates (ThermoFisher) overnight at 37° C. The coated cells were fixed with 8% paraformaldehyde at room temperature for 15 minutes. […] After washing, secondary antibody was added and incubated overnight at 4° C. […] After washing, TMB substrate (abcam) was added, and the color reaction was stopped with STOP solution (abcam). Absorbance at 450/650 nm was measured using a microplate reader (ThermoFisher).

Test [13] has as its target T3, mouse PD-1 expressed on CHO-S cells. Kind of test: cell-based ELISA on fixed CHO-S cells expressing mouse PD-1, hybridoma supernatant. The procedure:
as §4

Test [14] concerns the target T5, human PD-1 with P130 mutated to alanine (human, UniProt Q15116 25-288, limits assumed).
T5 construct: Alanine scanning mutant, expressed and analysed by high-throughput flow cytometry; the construct is not described further
As to the kind of experiment: alanine scanning, high-throughput flow cytometry. An excerpt:
(§5) Selected amino acid residues of PD-1 were mutated to alanine using PCR mutagenesis.

The target in test [15] is T6, human PD-1 with L128 mutated to alanine (human, UniProt Q15116 25-288, limits assumed).
T6 construct: Alanine scanning mutant, expressed and analysed by high-throughput flow cytometry; the construct is not described further
T6 sequence (Q15116 other isoform, or with tags, fused parts or gaps limits assumed, change not shown): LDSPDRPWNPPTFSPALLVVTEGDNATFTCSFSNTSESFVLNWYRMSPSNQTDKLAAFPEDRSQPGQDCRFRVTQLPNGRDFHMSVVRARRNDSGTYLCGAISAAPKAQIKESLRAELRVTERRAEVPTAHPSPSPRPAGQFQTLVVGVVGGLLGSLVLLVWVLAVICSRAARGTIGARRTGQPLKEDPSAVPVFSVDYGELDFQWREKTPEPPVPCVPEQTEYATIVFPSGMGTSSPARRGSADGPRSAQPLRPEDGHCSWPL
As to the kind of experiment: alanine scanning, high-throughput flow cytometry.
From the text: as §5
A general note: Flow cytometry measures light scatter and fluorescence of single cells or particles in a stream.

Test [16] deals with T7, human PD-1 with I126 mutated to alanine (human, UniProt Q15116 25-288, limits assumed).
T7 construct: Alanine scanning mutant, expressed and analysed by high-throughput flow cytometry; the construct is not described further
T7 sequence (Q15116 other isoform, or with tags, fused parts or gaps limits assumed, change not shown): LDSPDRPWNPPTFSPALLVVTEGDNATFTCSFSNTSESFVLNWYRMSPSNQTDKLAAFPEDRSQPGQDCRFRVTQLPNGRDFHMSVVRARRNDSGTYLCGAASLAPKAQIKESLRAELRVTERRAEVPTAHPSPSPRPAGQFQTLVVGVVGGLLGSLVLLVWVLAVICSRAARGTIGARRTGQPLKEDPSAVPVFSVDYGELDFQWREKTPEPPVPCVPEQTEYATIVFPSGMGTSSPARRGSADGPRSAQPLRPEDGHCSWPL
As to the kind of experiment: alanine scanning, high-throughput flow cytometry.
From the text: as §5

T2 sequence (Q15116 25-167 limits assumed): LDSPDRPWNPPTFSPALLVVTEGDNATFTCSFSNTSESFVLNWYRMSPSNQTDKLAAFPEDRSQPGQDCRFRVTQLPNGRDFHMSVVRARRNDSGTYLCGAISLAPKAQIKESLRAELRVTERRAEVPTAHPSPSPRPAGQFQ
T1 sequence (Q15116 25-288 limits assumed): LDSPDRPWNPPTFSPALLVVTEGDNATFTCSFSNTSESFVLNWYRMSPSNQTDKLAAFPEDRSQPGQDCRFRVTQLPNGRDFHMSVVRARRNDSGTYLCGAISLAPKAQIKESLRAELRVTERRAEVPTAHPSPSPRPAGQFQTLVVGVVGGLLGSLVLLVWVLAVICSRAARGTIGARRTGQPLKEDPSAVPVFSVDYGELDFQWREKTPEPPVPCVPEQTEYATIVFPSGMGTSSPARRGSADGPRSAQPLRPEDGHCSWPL
T5 sequence (Q15116 other isoform, or with tags, fused parts or gaps limits assumed, change not shown): as the sequence (Q15116 25-288 limits assumed) above, with P106A counted along it
Chain of human CTLA-4 protein (P16410 36-161 limits assumed): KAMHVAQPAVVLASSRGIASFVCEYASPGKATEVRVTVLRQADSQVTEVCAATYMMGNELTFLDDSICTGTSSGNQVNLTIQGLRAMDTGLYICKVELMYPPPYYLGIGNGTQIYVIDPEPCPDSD

With Keytruda (antibody), in test [1], the concentration for a half-maximal effect (EC50) was 0.154 nM. The molecule further had an EC50 (read off the curve) in test [2] of 0.05 µg/mL. Moreover, the Kd in [3] was 7.06 nM; in test [4] it was 6.6 nM; in test [5], 6.33 nM.

B1: hybridoma 1G1 antibody (antibody, V domains shown)
VH: EVQLQQSGAELVKPGASVKLSCKASGYTFTGYWMHWVKQRPGQGLEWIGMIHPNSDTTTYNEKFKNRATLTVDKSSGTAYMQLSSLTSEDSAVYYCTGTDQAAWFAFWGQGTLVTVSA
VL: DIVLTQTPLSLPVSLGDQASISCRSSQNIVHSNGDTYLEWYLQKPGQSPKLLIYKVSKRFSGVPDRFSGSGSGTDFTLKISRVEAEDLGVYYCFQGSHVPWTFGGGTKLEIK
notes: Mouse antibody from the hybridoma, used as culture supernatant or Protein G purified; IgG1 reverse primer used for VH); also called 1G1 hybridoma antibody; monoclonal cell (hybridoma) 1G1 antibody
On to B1, for which the EC50 worked out at 0.0281 nM in test [1] and 0.0317 nM in test [6]. Besides, the binding result in [7], in test [8], in test [9] and in test [10] was “no binding” in each case. In test [11], the “fold improved binding activity compared to Keytruda and Opdivo” value was about 5 fold. For the same molecule, the “EC50 (read off the curve)” value in [12] and in test [13] was about 0.01 µg/mL throughout.

B2: chimeric 1G1 antibody (antibody, human IgG4 S228P, kappa, V domains shown)
VH: B1 VH
VL: DIVLTQTPLSLPVSLGDQASISCRSSQNIVHSNGDTYLEWYLQKPGQSPKLLIYKVSKRFSGVPDRFSGSGSGTDFTLKISRVEAEDLGVYYCFQGSHVPWTFGGGTKLEIKR
notes: signal peptide not part of the entries; also called 1G1 chimeric; 1G1-chimeric
For B2, the “binding activity relative to the wild-type antigen” value in test [14] was at most 50%. Moreover, the “binding activity relative to the wild-type antigen” value in [15] is at most 50%. Further, in test [16], the “binding activity relative to the wild-type antigen” value was at most 50%. Further, in test [5], binding was characterised by a dissociation constant (Kd) of 3.35 nM, the koff stood at 0.000749 s⁻¹ and the kon was 223000 M⁻¹ s⁻¹.
